This note sets out measurements from patent US20220135680A1 (ABZYME THERAPEUTICS, published 2022).

Assay [1] deals with T1, human CD3 receptor on human cells (human, UniProt P07766 23-207; P09693 23-182; P04234 22-171).
T1 construct: whole, on cells; also called human CD3 on cell surface; CD3 on Jurkat cells, clone E6-1
The assay can be described thus: flow cytometry on Jurkat cells (FIG. 5).
Excerpt: FIG. 5 presents the cytoflow analysis of Jurkat cells stained with various anti-CD3 antibodies at various pHs.

For assay [2], the target named is T1, human CD3 receptor on human cells. The assay can be described thus: flow cytometry on human cells (Example 5).

B1: Abz497 ScFV (scFv)
scFv: QIQLVQSGAEVAKPGASVKVSCKASGYTFTRYTMHWVRQRPGQGLEWIGYINPSRGYTNYNQKFKDRATLTTDKSTSTAYMELSSLTSEDTAVYYCARYYDDHYCLDYWGQGTTVTVSSVEGGSGGSGGSGGSGGVDDIQLTQSPSSLSASVGDRVTITCRASSSVHYMNWYQQKSGTAPKRWIYDTSKVASGVPYRFSGSGSGTSYTLTISSLQPEDAATYYCQQWSSNPLTFGGGTKVEIKR
notes: also called pH-dependent ScFV antibody variant; not shown: FLAG tag at the C terminus
As to B1, the binding result in assay [1] was “binds”.

B2: Abz494 ScFV (scFv)
scFv: QIQLVQSGAEVAKPGASVKVSCKASGYTFTRYTMHWVRQRPGQGLEWIGYINPSRGYTNYNQKFKDRATLTTDKSTSTAYMELSSLTSEDTAVYYCARYYDDHYCLDYWGQGTTVTVSSVEGGSGGSGGSGGSGGVDDIQLTQPPSSLSASVGDRVTITCRASSSVHYMNWYQQKSGTAPKRWIYDTSKVASGVPYRFSGSGSGTSYTLTISSLQPEDAATYYCQQWSSNPLTFGGGTKVEIKR
notes: as for B1
Take B2: the binding result in assay [2] was “binds”.
